# Measured values from patent publication US7419799 (GENETECH, dated 2008).
# B1: His-tagged PRO20080 (receptor)
# chain: QSSLTPLMVNGILGESVTLPLEFPAGEKVNFITWLFNETSLAFIVPHETKSPEIHVTNPKQGKRLNFTQSYSLQLSNLKMEDTGSYRAQISTKTSAKLSSYTLRILRQLRNIQVTNHSQLFQNMTCELHLTCSVEDADDNVSFRWEALGNTLSSQPNLTVSWDPRISSEQDYTCIAENAVSNLSFSVSAQKLCEDVKIQYTDTKM
# notes: In the BIAcore assay the same protein served as both the immobilized and the soluble partner; not shown: His tag
# B2: wild type PRO20080 (full-length, expressed in cells) (receptor)
# chain: FGPGNVVSQSSLTPLMVNGILGESVTLPLEFPAGEKVNFITWLFNETSLAFIVPHETKSPEIHVTNPKQGKRLNFTQSYSLQLSNLKMEDTGSYRAQISTKTSAKLSSYTLRILRQLRNIQVTNHSQLFQNMTCELHLTCSVEDADDNVSFRWEALGNTLSSQPNLTVSWDPRISSEQDYTCIAENAVSNLSFSVSAQKLCEDVKIQYTDTKMILFMVSGICIVFGFIILLLLVLRKRRDSLSLSTQRTQGPAESARNLEYVSVSPTNNTVYASVTHSNRETEIWTPRENDTITIYSTINHSKESKPTFSRATALDNVV
# notes: also called PRO20080 receptor
# B3: phosphorylated PRO20080 (receptor)
# chain: B2 chain
# modifications: tyrosine-phosphorylated (detected with anti-phosphotyrosine antibody; sites not stated)
# notes: The phosphorylated residues are not identified; also called PRO20080 in pervanadate treated cells; PRO20080 after CD3 and PRO20080 cross linking
# Experiments:
# [1] = molecular target: the molecule itself; assay: BIAcore, homotypic interaction of His-tagged PRO20080
# Protocol: Lastly, a BIAcore® assay was performed to determine if a His-tagged PRO20080 would associate with itself. The association rate can be determined by any method in which formation of the complex may be observed as a function of time. In the BIAcore® analysis, in which one measures the association of the protein to an protein that has been immobilized on a biosensor surface (reviewed by Rich & Myszka, Curr. Opin. Biotechnol. 11:54-61 (2000)).
# [2] = molecular target: T1, SHP1 (human, UniProt P29350 1-595); assay: co-immunoprecipitation from isolated human CD4+ T cells (untreated), Western blot
# [3] = molecular target: T2, SHP2 (human, UniProt Q06124 2-593); assay: as above
# T2 sequence (looked up): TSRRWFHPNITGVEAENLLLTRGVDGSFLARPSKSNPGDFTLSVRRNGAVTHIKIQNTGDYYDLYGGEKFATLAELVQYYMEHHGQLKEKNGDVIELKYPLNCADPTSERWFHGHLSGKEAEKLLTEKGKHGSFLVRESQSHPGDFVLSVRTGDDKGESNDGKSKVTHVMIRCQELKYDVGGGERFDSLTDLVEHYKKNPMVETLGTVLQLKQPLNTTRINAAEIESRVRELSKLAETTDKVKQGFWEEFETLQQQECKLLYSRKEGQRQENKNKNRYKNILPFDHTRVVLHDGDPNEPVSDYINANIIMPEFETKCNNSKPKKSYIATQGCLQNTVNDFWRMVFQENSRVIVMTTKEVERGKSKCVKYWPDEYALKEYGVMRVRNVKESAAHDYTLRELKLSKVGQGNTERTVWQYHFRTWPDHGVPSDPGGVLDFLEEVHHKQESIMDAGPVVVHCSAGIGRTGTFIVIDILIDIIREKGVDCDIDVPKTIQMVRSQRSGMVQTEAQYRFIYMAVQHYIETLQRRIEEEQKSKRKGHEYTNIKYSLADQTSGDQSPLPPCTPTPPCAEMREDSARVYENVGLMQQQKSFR
# [4] = molecular target: T1, SHP1; assay: co-immunoprecipitation from isolated human CD4+ T cells (CD3 and PRO20080 cross-linked), Western blot
# [5] = molecular target: T2, SHP2; assay: as above
# T1 sequence (P29350 whole entry): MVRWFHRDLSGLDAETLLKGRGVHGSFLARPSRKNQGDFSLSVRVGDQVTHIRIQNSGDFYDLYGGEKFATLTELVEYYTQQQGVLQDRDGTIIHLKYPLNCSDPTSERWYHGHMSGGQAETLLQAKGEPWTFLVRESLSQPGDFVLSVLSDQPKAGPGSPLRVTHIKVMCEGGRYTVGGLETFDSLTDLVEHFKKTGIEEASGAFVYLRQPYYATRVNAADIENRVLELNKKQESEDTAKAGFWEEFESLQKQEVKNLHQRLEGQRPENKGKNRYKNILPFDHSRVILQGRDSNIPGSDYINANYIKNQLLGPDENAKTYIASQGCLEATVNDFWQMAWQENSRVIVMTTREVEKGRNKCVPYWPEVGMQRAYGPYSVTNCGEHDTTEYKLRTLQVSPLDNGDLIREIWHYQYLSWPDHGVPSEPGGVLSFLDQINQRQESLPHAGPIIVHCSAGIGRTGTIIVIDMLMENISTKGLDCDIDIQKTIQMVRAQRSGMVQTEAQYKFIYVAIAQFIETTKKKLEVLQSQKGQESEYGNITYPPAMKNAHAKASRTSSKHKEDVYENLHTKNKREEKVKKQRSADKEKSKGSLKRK
binder,measurement,setting,value
B1,Kd,[1],> 100 µM
B2,binding result,[2],no binding
same,binding result,[3],no binding
B3,binding result,[4],no binding
same,binding result,[5],no binding
